# Test results: patent US20250186594A1 (BRIGHT PEAK THERAPEUTICS, published 2025)
# T1: IL-18 receptor (IL-18R) on HEK-Blue IL18R reporter cells (UniProt Q13478 19-541; O95256 20-599, limits assumed)
# T1 sequence (looked up) 1: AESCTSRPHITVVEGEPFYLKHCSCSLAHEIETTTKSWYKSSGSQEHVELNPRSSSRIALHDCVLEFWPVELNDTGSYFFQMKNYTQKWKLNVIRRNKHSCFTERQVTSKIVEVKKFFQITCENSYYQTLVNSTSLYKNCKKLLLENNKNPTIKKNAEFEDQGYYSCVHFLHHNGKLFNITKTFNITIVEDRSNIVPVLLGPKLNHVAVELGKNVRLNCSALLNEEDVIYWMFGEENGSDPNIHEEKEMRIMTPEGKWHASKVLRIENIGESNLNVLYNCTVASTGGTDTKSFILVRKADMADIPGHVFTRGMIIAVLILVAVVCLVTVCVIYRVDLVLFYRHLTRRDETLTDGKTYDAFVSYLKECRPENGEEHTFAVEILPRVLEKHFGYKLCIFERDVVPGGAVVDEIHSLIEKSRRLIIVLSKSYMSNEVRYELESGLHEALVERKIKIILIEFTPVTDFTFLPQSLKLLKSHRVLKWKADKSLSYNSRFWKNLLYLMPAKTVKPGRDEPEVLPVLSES
# T1 sequence (looked up) 2: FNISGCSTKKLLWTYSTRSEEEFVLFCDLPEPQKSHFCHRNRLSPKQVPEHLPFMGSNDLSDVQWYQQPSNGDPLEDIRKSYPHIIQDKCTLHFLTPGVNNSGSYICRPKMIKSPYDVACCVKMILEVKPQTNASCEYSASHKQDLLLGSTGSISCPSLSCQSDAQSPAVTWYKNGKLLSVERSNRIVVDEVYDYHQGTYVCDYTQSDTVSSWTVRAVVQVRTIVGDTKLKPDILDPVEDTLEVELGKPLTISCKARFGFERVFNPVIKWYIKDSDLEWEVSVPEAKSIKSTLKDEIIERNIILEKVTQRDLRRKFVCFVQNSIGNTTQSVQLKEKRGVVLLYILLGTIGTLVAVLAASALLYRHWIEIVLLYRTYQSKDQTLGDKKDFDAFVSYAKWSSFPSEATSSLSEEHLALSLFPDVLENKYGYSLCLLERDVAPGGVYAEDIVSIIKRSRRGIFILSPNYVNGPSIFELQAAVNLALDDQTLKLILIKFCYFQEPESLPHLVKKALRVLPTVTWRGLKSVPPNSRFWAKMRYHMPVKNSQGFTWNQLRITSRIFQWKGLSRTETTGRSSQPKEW
# T2: Fc fused human IL-18Rα (human, UniProt Q13478 19-329, limits assumed)
# T2 construct: also called IL-18Rα monomer; human IL-18 receptor alpha (CD218a); not shown: Fc
# T2 sequence (looked up): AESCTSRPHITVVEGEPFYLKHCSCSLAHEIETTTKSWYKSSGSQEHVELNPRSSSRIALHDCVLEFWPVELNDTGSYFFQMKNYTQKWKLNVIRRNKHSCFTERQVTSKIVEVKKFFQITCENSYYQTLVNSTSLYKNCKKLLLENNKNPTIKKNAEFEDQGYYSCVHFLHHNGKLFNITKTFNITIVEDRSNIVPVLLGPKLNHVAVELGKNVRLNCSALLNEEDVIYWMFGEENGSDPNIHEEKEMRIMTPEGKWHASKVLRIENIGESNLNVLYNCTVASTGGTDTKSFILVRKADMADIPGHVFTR
# T3: IL-18Rα/β heterodimer (Fc fused human IL-18Rα mixed with Fc fused human IL-18Rβ) (human, UniProt Q13478 19-329; O95256 20-356, limits assumed)
# T3 construct: Alpha and beta Fc fusions were mixed and pre-incubated for 30 min before capture on anti-human IgG; also called alpha/beta heterodimer IL-18 receptor; heterodimeric human IL-18 receptor alpha (CD218a) and IL-18R accessory protein (IL-18RAP/CDw218b); not shown: Fc
# T3 sequence (looked up) 1: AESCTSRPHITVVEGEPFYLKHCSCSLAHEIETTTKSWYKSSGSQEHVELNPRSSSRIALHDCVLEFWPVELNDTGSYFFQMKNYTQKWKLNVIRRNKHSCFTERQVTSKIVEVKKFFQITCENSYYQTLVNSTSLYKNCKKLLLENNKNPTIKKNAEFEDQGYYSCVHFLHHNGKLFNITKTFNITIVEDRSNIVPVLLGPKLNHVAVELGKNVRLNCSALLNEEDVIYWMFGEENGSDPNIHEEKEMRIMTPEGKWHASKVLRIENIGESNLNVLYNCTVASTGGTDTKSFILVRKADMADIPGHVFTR
# T3 sequence (looked up) 2: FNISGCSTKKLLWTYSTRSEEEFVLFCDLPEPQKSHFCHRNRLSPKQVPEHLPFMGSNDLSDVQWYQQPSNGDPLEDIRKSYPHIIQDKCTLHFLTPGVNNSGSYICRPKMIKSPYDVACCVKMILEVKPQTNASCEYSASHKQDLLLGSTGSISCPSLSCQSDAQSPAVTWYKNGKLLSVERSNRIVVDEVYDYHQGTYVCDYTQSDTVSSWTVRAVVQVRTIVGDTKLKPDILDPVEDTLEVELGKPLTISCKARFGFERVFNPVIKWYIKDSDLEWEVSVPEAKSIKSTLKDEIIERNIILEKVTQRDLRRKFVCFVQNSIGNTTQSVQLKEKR
# What was measured:
# [1] = target: T1, IL-18 receptor (IL-18R) on HEK-Blue …; test: cell-based or functional assay
# [2] = target: T1, IL-18 receptor (IL-18R) on HEK-Blue …; test: cell-based or functional assay; remark: listed apart in the source
# [3] = target: T2, Fc fused human IL-18Rα; test: SPR, Fc-IL-18Rα captured, 1:1 fit
# Experimental: (§1) The interaction of the wild type and of modified IL-18 polypeptides with human IL-18 receptor subunits are measured with Surface Plasmon Resonance (SPR) technology. Anti-human IgG antibodies are bound by amine coupling onto a CM5 chip to capture 6 µg/mL of Fc fused human IL-18Rα, […] of Fc fused human IL-18Rβ, or […] of Fc fused human IL-18BP isoform a (IL-18BPa) for 30 min before capture. In other settings, […] of alpha and beta IL-18 receptors are mixed and pre-incubated for 30 min before capture of the alpha/beta heterodimer IL-18 receptor.
# (§2) The kinetic binding of the IL-18 analytes are measured with a Biacore 8K instrument in two fold serial dilutions starting at […] down to 0.98 nM. Regeneration of the surface back to amine coupled anti IgG antibody is done after every concentration of analyte. To measure the protein association to the receptors, the samples are injected with a flow rate of […] for 60 s, followed by 300 s buffer only to detect the dissociation. The used running buffer is 1×PBS with 0.05% Tween20. The relative response units (RU, Y-axis) are plotted against time (s, X-axis) and analyzed in a kinetic 1:1 binding model for the monomer receptor binding and for the binding to the IL-18BP. A kinetic heterogenous ligand fit model is applied for the alpha/beta heterodimer binding.
# [4] = target: T3, IL-18Rα/β heterodimer (Fc fused human …); test: SPR, Fc-IL-18Rα/β captured, heterogeneous ligand fit
# Experimental: as §1, §2
Binder,"EC50, HEK-Blue IL18R reporter [1] [pM]",EC50 (read off the curve); SEAP reporter in HEK-Blue IL18R cells (OD 620 nM) [2] [pM],Kd [3] [pM],koff [3] [s⁻¹],kon [3] [M⁻¹ s⁻¹],Kd [4] [pM],koff [4] [s⁻¹],kon [4] [M⁻¹ s⁻¹]
"IL-18 variant SEQ ID NO: 30 (E6K, V11I, C38A, K53A, T63A, C76A, C127A) (ligand) YFGKLKSKLSIIRNLNDQVLFIDQGNRPLFEDMTDSDARDNAPRTIFIISMYADSQPRGMAVAISVKCEKISTLSAENKIISFKEMNPPDNIKDTKSDIIFFQRSVPGHDNKMQFESSSYEGYFLAAEKERDLFKLILKKEDELGDRSIMFTVQNED",53,~0.05,30300,0.0536,1.77e+06,490,0.000311,866000
"IL-18 variant SEQ ID NO: 59 (E6K, C38A, K53A) (ligand) YFGKLKSKLSVIRNLNDQVLFIDQGNRPLFEDMTDSDARDNAPRTIFIISMYADSQPRGMAVTISVKCEKISTLSCENKIISFKEMNPPDNIKDTKSDIIFFQRSVPGHDNKMQFESSSYEGYFLACEKERDLFKLILKKEDELGDRSIMFTVQNED",268,~0.3,17800,0.0165,1.77e+06,660,0.000815,1.24e+06
"IL-18 variant SEQ ID NO: 61 (E6K, C38A, K53A, C76A) (ligand) YFGKLKSKLSVIRNLNDQVLFIDQGNRPLFEDMTDSDARDNAPRTIFIISMYADSQPRGMAVTISVKCEKISTLSAENKIISFKEMNPPDNIKDTKSDIIFFQRSVPGHDNKMQFESSSYEGYFLACEKERDLFKLILKKEDELGDRSIMFTVQNED",84,–,30400,0.0674,2.22e+06,1010,0.0011,1.09e+06
"IL-18 variant SEQ ID NO: 62 (E6K, C38A, K53A, C127A) (ligand) YFGKLKSKLSVIRNLNDQVLFIDQGNRPLFEDMTDSDARDNAPRTIFIISMYADSQPRGMAVTISVKCEKISTLSCENKIISFKEMNPPDNIKDTKSDIIFFQRSVPGHDNKMQFESSSYEGYFLAAEKERDLFKLILKKEDELGDRSIMFTVQNED",170,–,63900,0.0424,664000,1240,0.00149,1.21e+06
"IL-18 variant SEQ ID NO: 63 (E6K, C38A, K53A, C76A, C127A) (ligand) YFGKLKSKLSVIRNLNDQVLFIDQGNRPLFEDMTDSDARDNAPRTIFIISMYADSQPRGMAVTISVKCEKISTLSAENKIISFKEMNPPDNIKDTKSDIIFFQRSVPGHDNKMQFESSSYEGYFLAAEKERDLFKLILKKEDELGDRSIMFTVQNED",13.9,–,42200,0.976,2.31e+07,410,0.000467,1.15e+06
"IL-18 variant SEQ ID NO: 207 (V11I, C38A, M51G, K53A, C76A, C127A) (ligand) YFGKLESKLSIIRNLNDQVLFIDQGNRPLFEDMTDSDARDNAPRTIFIISGYADSQPRGMAVTISVKCEKISTLSAENKIISFKEMNPPDNIKDTKSDIIFFQRSVPGHDNKMQFESSSYEGYFLAAEKERDLFKLILKKEDELGDRSIMFTVQNED",800,~4,–,–,–,–,–,–
"IL-18 variant SEQ ID NO: 239 (E6K, V11I, C38A, M51G, K53A, T63A, C76A, C127A) (ligand) YFGKLKSKLSIIRNLNDQVLFIDQGNRPLFEDMTDSDARDNAPRTIFIISGYADSQPRGMAVAISVKCEKISTLSAENKIISFKEMNPPDNIKDTKSDIIFFQRSVPGHDNKMQFESSSYEGYFLAAEKERDLFKLILKKEDELGDRSIMFTVQNED",100,~0.1,–,–,–,–,–,–

# Second part, the binder after the results:
"EC50, HEK-Blue IL18R reporter [1] [pM]",EC50 (read off the curve); SEAP reporter in HEK-Blue IL18R cells (OD 620 nM) [2] [pM],Kd [3] [pM],koff [3] [s⁻¹],kon [3] [M⁻¹ s⁻¹],Kd [4] [pM],koff [4] [s⁻¹],kon [4] [M⁻¹ s⁻¹],Binder
2500,~3,–,–,–,–,–,–,"IL-18 variant SEQ ID NO: 241 (N-terminal 4xG, E6K, V11I, C38A, K53A, T63A, C76A, C127A) (ligand) GGGGYFGKLKSKLSIIRNLNDQVLFIDQGNRPLFEDMTDSDARDNAPRTIFIISMYADSQPRGMAVAISVKCEKISTLSAENKIISFKEMNPPDNIKDTKSDIIFFQRSVPGHDNKMQFESSSYEGYFLAAEKERDLFKLILKKEDELGDRSIMFTVQNED"
1680,~2,–,–,–,–,–,–,"IL-18 variant SEQ ID NO: 242 (N-terminal G, E6K, V11I, C38A, K53A, T63A, C76A, C127A) (ligand) GYFGKLKSKLSIIRNLNDQVLFIDQGNRPLFEDMTDSDARDNAPRTIFIISMYADSQPRGMAVAISVKCEKISTLSAENKIISFKEMNPPDNIKDTKSDIIFFQRSVPGHDNKMQFESSSYEGYFLAAEKERDLFKLILKKEDELGDRSIMFTVQNED"
14000,~10,–,–,–,–,–,–,"IL-18 variant SEQ ID NO: 244 (N-terminal G, E6K, V11I, C38A, M51G, K53A, T63A, C76A, C127A) (ligand) GYFGKLKSKLSIIRNLNDQVLFIDQGNRPLFEDMTDSDARDNAPRTIFIISGYADSQPRGMAVAISVKCEKISTLSAENKIISFKEMNPPDNIKDTKSDIIFFQRSVPGHDNKMQFESSSYEGYFLAAEKERDLFKLILKKEDELGDRSIMFTVQNED"
